# Data from US20250057918A1 (YALE UNIVERSITY, published 2025).
# Numbering of substitutions follows the chain as printed.
# T1: IL-18 receptor (IL-18R) on HEK-Blue IL-18 reporter cells (UniProt Q13478 19-541; O95256 20-599, limits assumed)
# T1 sequence (looked up) 1: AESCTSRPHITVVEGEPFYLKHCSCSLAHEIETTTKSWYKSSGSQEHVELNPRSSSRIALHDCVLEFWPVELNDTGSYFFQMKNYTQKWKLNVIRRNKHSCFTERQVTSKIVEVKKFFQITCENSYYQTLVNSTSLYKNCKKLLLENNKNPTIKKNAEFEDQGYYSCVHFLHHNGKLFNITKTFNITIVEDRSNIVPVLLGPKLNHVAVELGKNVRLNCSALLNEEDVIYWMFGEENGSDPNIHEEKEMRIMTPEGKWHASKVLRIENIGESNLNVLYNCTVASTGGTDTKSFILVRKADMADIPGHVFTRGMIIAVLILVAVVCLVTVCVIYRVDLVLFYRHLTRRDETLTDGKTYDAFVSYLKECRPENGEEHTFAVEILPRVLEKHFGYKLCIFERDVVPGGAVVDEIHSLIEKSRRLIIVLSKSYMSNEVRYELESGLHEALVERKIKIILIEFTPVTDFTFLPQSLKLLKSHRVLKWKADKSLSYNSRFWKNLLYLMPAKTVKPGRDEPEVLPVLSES
# T1 sequence (looked up) 2: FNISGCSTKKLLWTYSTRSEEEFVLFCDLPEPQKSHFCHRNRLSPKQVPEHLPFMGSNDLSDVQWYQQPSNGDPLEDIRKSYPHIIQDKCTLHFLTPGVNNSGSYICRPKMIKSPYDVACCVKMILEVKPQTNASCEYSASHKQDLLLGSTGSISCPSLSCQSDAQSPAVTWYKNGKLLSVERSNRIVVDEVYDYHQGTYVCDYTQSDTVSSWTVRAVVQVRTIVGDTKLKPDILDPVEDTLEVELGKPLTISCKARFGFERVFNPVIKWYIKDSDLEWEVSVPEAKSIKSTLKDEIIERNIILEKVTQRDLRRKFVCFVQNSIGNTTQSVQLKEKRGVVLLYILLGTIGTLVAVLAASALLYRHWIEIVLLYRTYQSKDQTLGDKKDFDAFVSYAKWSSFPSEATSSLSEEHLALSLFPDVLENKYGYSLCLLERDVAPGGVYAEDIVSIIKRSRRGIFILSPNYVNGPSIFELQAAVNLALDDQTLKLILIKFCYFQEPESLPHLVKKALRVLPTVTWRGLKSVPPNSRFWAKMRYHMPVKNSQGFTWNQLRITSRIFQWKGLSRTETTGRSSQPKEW
# T2: human IL-18BP (amino acids 31-194) (human, UniProt O95998 31-194, biotinylated on the AviTag (BirA ligase) where immobilized or used for staining)
# T2 construct: Secreted decoy receptor; made in insect cells (gp67 signal peptide); also called hIL-18BP
# T2 sequence: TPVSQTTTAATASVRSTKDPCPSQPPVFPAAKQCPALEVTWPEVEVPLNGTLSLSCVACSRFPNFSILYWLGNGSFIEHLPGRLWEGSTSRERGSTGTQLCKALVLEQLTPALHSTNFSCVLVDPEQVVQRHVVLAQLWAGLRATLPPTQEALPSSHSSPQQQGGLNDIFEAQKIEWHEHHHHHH
# T3: human IL-18Rα ectodomain (amino acids 19-329) (human, UniProt Q13478 19-329, biotinylated on the AviTag (BirA ligase))
# T3 construct: range 19-329; Secreted from insect cells (gp67 signal peptide); also called hIL-18Rα; hIL-18Ra
# T3 sequence: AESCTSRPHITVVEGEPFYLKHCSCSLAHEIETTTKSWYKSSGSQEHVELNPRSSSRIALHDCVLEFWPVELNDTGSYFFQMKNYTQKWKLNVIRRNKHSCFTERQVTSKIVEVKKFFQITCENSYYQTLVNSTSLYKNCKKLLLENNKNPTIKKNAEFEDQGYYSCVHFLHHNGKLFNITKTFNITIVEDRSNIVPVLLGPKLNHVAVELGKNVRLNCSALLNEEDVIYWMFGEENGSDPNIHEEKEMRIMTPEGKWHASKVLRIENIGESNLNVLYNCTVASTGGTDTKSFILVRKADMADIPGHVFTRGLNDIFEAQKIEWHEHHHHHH
# T4: mouse IL-18BP (amino acids 31-194) (mouse, UniProt Q9Z0M9 29-193, biotinylated on the AviTag (BirA ligase))
# T4 construct: Secreted decoy receptor; made in Expi293 cells (H7 signal peptide); the stated range is the same as for the human protein; also called mIL-18BP
# T4 sequence: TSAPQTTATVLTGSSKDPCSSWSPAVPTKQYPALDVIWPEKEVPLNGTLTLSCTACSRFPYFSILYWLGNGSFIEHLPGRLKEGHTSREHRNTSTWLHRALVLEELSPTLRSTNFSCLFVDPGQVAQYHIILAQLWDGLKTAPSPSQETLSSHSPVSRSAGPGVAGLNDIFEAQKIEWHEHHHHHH
# T5: mouse IL-18Rα ectodomain (amino acids 19-329) (mouse, UniProt Q61098 19-329, biotinylated on the AviTag (BirA ligase))
# T5 construct: range 19-329; Secreted from Expi293 cells (H7 signal peptide); also called mIL-18Rα; Ra
# T5 sequence: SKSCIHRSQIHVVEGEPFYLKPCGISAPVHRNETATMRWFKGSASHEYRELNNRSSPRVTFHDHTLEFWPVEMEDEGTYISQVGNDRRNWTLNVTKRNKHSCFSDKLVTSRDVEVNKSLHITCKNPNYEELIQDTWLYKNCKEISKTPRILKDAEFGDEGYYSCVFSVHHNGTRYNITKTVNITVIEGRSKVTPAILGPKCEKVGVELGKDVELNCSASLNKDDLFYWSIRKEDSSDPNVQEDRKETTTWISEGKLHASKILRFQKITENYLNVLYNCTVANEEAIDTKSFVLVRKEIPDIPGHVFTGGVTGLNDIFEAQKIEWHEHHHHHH
# B1: 6-29 (ligand)
# chain: YFGKLESKLSVIRNLNDQVLFIDQGNRPLFEDMTDSDCRDNAPRTIFIISKYSDSRARGLAVTISVKCEKISTLSCENKIISFKEMNPPDNIKDTKSDIIFFQRNVPGHGRKMQFESSSYEGYFLACEKERDLFKLILKKEDELGDRSIMFTVQNED
# notes: recombinant with C-terminal hexahistidine tag in SPR and cell assays; also called h6-29; version 2.0 human DR-IL-18 variant
# B2: hCS2 (ligand)
# chain: YFGKLESKLSVIRNLNDQVLFIDQGNRPLFEDMTDSDCRDNAPRTIFIISTYKDKQPRAKAVTISVKCEKISTLSCENKIISFKEMNPPDNIKDTKSDIIFFQRDVPGHKHKMQFESSSYEGYFLACEKERDLFKLILKKEDELGDRSIMFTIQNED
# notes: recombinant with C-terminal hexahistidine tag in SPR
# B3: hCS4 (ligand)
# chain: B2 chain with Y1R, K53R, K55S, A59G, D105N, H111Y, I153V
# notes: recombinant with C-terminal hexahistidine tag in SPR and cell assays
# B4: wild-type mouse IL-18 (mature form) (ligand)
# chain: NFGRLHCTTAVIRNINDQVLFVDKRQPVFEDMTDIDQSASEPQTRLIIYMYKDSEVRGLAVTLSVKDSKMSTLSCKNKIISFEEMDPPENIDDIQSDLIFFQKRVPGHNKMEFESSLYEGHFLACQKEDDAFKLILKKKDENGDKSVMFTLTNLHQS
# notes: recombinant from E. coli with C-terminal hexahistidine tag in SPR; also called mIL-18 WT; WT mIL-18
# B5: mA7 (ligand)
# chain: B4 chain with N1Y, M50A, K52G, S54N, E55R, L59K
# notes: as for B2
# B6: mE8 (ligand)
# chain: B4 chain with M50V, K52T, S54G, E55R, V56R, L59K, R104K, N109D
# notes: as for B2
# Tests used:
# [1] = molecular target: T1, IL-18 receptor (IL-18R) on HEK-Blue …; test: cell-based or functional assay
# [2] = molecular target: T2, human IL-18BP (amino acids 31-194); test: SPR; KD BP / KD Ra normalized to WT IL-18
# [3] = molecular target: T2, human IL-18BP (amino acids 31-194); test: on-yeast isotherms; BP/Rα KD ratio normalized to WT
# Procedure: (§1) Individual colonies of IL-18 yeast were grown overnight at 30° C. in SDCAA liquid media and induced in SGCAA liquid media for 1 day at 20° C. IL-18 display levels on yeast were verified by flow cytometry using an anti-cMyc tag antibody (anti-myc-PE; Cell Signaling Technologies). Receptor staining with biotinylated IL-18Rα (with or without IL-18Rβ) or biotinylated IL-18BP was performed in PBS supplemented with 0.5% BSA and 2 mM EDTA (PBE) on ice. All analysis was performed on a Sony SA3800 flow cytometer.
# (§2) To additionally characterize the receptor binding activities of the DR-IL-18 variants, the cytokines were expressed recombinantly and surface plasmon resonance for IL-18Rα and IL-18BP was performed (see FIG. 5B for representative traces).
# [4] = molecular target: T2, human IL-18BP (amino acids 31-194); test: on-yeast isotherms; KD IL-18BP / KD IL-18Rα (20 µM used for NBD)
# [5] = molecular target: T3, human IL-18Rα ectodomain (amino acids …); test: on-yeast binding isotherm, flow cytometry
# Procedure: as §1, §2
# [6] = molecular target: T2, human IL-18BP (amino acids 31-194); test: SPR; KD IL-18BP / KD IL-18Rα; SPR; ratio of two KDs
# Procedure: (§3) Experiments were conducted using a Biacore™ T100 (Protein analysis interaction system) and carried out at 25° C. Biotinylated IL-18Rα or TL-18BP were immobilized onto a Biacore™ biotin capture chip (Series S CAP sensor chip, GE Healthcare) to yield an Rmax of ˜50 RU (IL-18Rα) or ˜10 RU (IL-18BP). Measurements were made with serial dilutions of the IL-18 variants in HEPES buffered Saline-P+ buffer (10 mM HEPES pH 7.4, 150 mM NaCl, 0.005% surfactant P20). The surface was regenerated by three 60-see injections of regeneration buffer (3/4 (v/v) 8M guanidine hydrochloride with 1/4 (v/v) 1M sodium hydroxide). Experiments were performed in multiple channels simultaneously for increased observations. All data were analyzed with the Biacore™ T100 evaluation software version 2.0 with a 1:1 Langmuir binding model.
# as §2
# [7] = molecular target: T2, human IL-18BP (amino acids 31-194); test: on-yeast isotherms; KD IL-18BP / KD IL-18Rα (20 µM used for NBD); on-yeast isotherms; 20 µM put in for NBD
# Procedure: as §1, §2
# [8] = molecular target: T4, mouse IL-18BP (amino acids 31-194); test: SPR; KD IL-18BP / KD IL-18Rα
# Procedure: (§4) By contrast, very little binding is observed with the same variants and mIL-18BP (right). (FIG. 11B) Representative surface plasmon resonance sensorgrams between immobilized biotinylated mIL-18BP and the murine DR-IL-18 variants.
# as §3
# [9] = molecular target: T4, mouse IL-18BP (amino acids 31-194); test: SPR; KD BP / KD Ra normalized to WT IL-18
# [10] = molecular target: T4, mouse IL-18BP (amino acids 31-194); test: on-yeast isotherms; KD IL-18BP / KD IL-18Rα
# [11] = molecular target: T5, mouse IL-18Rα ectodomain (amino acids …); test: flow cytometry, mIL-18Rα titrated on yeast-displayed murine IL-18 variant (binding isotherm, %Max)
# [12] = molecular target: T4, mouse IL-18BP (amino acids 31-194); test: SPR; KD IL-18BP / KD IL-18Rα; SPR; ratio of two KDs
# Procedure: as §4, §3
# [13] = molecular target: T4, mouse IL-18BP (amino acids 31-194); test: SPR; KD BP / KD Ra normalized to WT IL-18; upper end tied to mA7 by Table 9
# [14] = molecular target: T4, mouse IL-18BP (amino acids 31-194); test: on-yeast isotherms; KD IL-18BP / KD IL-18Rα (10 µM used for NBD); on-yeast isotherms; 10 µM put in for NBD
# [15] = molecular target: T4, mouse IL-18BP (amino acids 31-194); test: SPR; KD IL-18BP / KD IL-18Rα (30 µM used for NBD)
# Procedure: as §4, §3
# [16] = molecular target: T4, mouse IL-18BP (amino acids 31-194); test: on-yeast isotherms; KD IL-18BP / KD IL-18Rα (10 µM used for NBD)
binder,measurement,setting,value
B1,"EC50 (read off the curve); HEK-Blue IL-18 SEAP reporter, OD 655 nM",[1],~0.9 nM
same,IL-18 BP:Ra Dissociation Constant Ratio,[2],> 7.59e+06
same,Dissociation Constant Ratio normalized to WT IL-18,[3],> 8000
same,KD ratio: IL-18BP/IL-18Rα,[4],540
B2,Kd,[5],91.5 nM
same,KD ratio: IL-18BP/IL-18Rα,[4],> 219
B3,IL-18 BP:Ra Dissociation Constant Ratio,[2],32200
same,KD ratio: IL-18BP/IL-18Rα,[6],41.8
same,KD ratio: IL-18BP/IL-18Rα,[7],> 125
B4,KD ratio: IL-18BP/IL-18Rα,[8],0.00183
same,IL-18 BP:Ra Dissociation Constant Ratio,[9],1
same,KD ratio: IL-18BP/IL-18Rα,[10],0.188
same,EC50 (read off the curve),[11],~10 nM
B5,KD ratio: IL-18BP/IL-18Rα,[12],63200
same,IL-18 BP:Ra Dissociation Constant Ratio,[13],3.5e+07
same,KD ratio: IL-18BP/IL-18Rα,[14],> 741
same,EC50 (read off the curve),[11],~10 nM
B6,KD ratio: IL-18BP/IL-18Rα,[15],> 17800
same,KD ratio: IL-18BP/IL-18Rα,[16],> 238
